{
  "source": "patent US20240270813A1",
  "about": "(UNIVERSITY OF PITTSBURGH OF THE COMMONWEALTH SYSTEM OF …, published 2024)",
  "binders": {"B1": {"name": "TCR AD (TCR, V domains shown)", "V domain 1": "SQQGEEDPQALSIQEGENATMNCSYKTSINNLQWYRQNSGRGLVHLILIRSNEREKHSGRLRVTLDTSKKSSSLLITASRAADTASYFCATVPTDYMYSGGGADGLTFGKGTHLIIQP", "V domain 2": "DTGVSQNPRHKITKRGQNVTFRCDPISEHNRLYWYRQTLGQGPEFLTYFQNEAQLEKSRLLSDRFSAERPKGSFSTLEIQRTEQGDSAMYLCASSLVRLDGYTFGSGTRLTVVE"}, "B2": {"name": "TCR AJ (TCR, V domains shown)", "V domain 1": "EDQVTQSPEALRLQEGESSSLNCSYTVSGLRGLFWYRQDPGKGPEFLFTLYSAGEEKEKERLKATLTKKESFLHITAPKPEDSATYLCAVHSNAGGTSYGKLTFGQGTILTVHP", "V domain 2": "DAGVTQSPTHLIKTRGQHVTLRCSPISGHKSVSWYQQVLGQGPQFIFQYYEKEERGRGNFPDRFSARQFPNYSSELNVNALLLGDSALYLCASSADRGSPLHFGNGTRLTVTE"}, "B3": {"name": "TCR AE (TCR, V domains shown)", "V domain 1": "AQSVAQPEDQVNVAEGNPLTVKCTYSVSGNPYLFWYVQYPNRGLQFLLKYITGDNLVKGSYGFEAEFNKSQTSFHLKKPSALVSDSALYFCAVRCPTSGTYKYIFGTGTRLKVLA", "V domain 2": "B1 V domain 2 with N7D, R98S, L99G, D100N, G101E, Y102Q, T103F, S106P, V113L"}, "B4": {"name": "TCR AF (TCR, V domains shown)", "V domain 1": "B3 V domain 1 with C95S", "V domain 2": "B1 V domain 2 with N7D, R98S, L99G, D100N, G101E, Y102Q, T103F, S106P, V113L"}, "B5": {"name": "TCR AG (TCR, V domains shown)", "V domain 1": "B3 V domain 1 with C95T", "V domain 2": "B1 V domain 2 with N7D, R98S, L99G, D100N, G101E, Y102Q, T103F, S106P, V113L"}, "B6": {"name": "TCR AH (TCR, V domains shown)", "V domain 1": "B3 V domain 1 with C95V", "V domain 2": "B1 V domain 2 with N7D, R98S, L99G, D100N, G101E, Y102Q, T103F, S106P, V113L"}, "B7": {"name": "TCR AI (TCR, V domains shown)", "V domain 1": "B3 V domain 1 with C95E", "V domain 2": "B1 V domain 2 with N7D, R98N, L99G, D100N, G101E, Y102Q, T103F, S106P, V113L"}, "B8": {"name": "TCR A (TCR, V domains shown)", "V domain 1": "AQSVAQPEDQVNVAEGNPLTVKCTYSVSGNPYLFWYVQYPNRGLQFLLKYITGDNLVKGSYGFEAEFNKSQTSFHLKKPSALVSDSALYFCAVRGGSYKYIFGTGTRLKVLA", "V domain 2": "DTGVSQDPRHKITKRGQNVTFRCDPISEHNRLYWYRQTLGQGPEFLTYFQNEAQLEKSRLLSDRFSAERPKGSFSTLEIQRTEQGDSAMYLCASTPGTVYNEQFFGPGTRLTVLE"}, "B9": {"name": "TCR D (TCR, V domains shown)", "V domain 1": "B3 V domain 1 with C95A", "V domain 2": "B1 V domain 2 with N7D, R98S, L99G, D100N, G101E, Y102Q, T103F, S106P, V113L"}, "B10": {"name": "TCR E (TCR, V domains shown)", "V domain 1": "B3 V domain 1 with C95G", "V domain 2": "B1 V domain 2 with N7D, R98S, L99G, D100N, G101E, Y102Q, T103F, S106P, V113L"}, "B11": {"name": "TCR F (TCR, V domains shown)", "V domain 1": "GENVEQHPSTLSVQEGDSAVIKCTYSDSASNYFPWYKQELGKRPQLIIDIRSNVGEKKDQRIAVTLNKTAKHFSLHITETQPEDSAVYFCAAHLTGGGNKLTFGTGTQLKVEL", "V domain 2": "B8 V domain 2 with T95S, P96S, G97R, T98A, V99G, Y100G, N101E, E102T, F104Y, T112L"}, "B12": {"name": "TCR C (TCR, V domains shown)", "V domain 1": "KQEVTQIPAALSVPEGENLVLNCSFTDSAIYNLQWFRQDPGKGLTSLLLIQSSQREQTSGRLNASLDKSSGRSTLYIAASQPGDSATYLCAVRPRTSGTYKYIFGTGTRLKVLA", "V domain 2": "DTGVSQDPRHKITKRGQNVTFRCDPISEHNRLYWYRQTLGQGPEFLTYFQNEAQLEKSRLLSDRFSAERPKGSFSTLEIQRTEQGDSAMYLCASTELSGNTIYFGEGSWLTVVE"}},
  "note": "Substitutions are numbered along the chain they refer to. “And” between values parts separate entries of the source, which are not always exact repeats. Equal entries are not always repeated.",
  "data": [
    {"molecular_target": "T1, HA-1 “H” peptide (…) presented by HLA-A*02:01 on antigen presenting cells (human)", "assay": "cell-based or functional assay", "units": {"EC50 values for CD69 Expression": "ng/mL"}, "values": [
      {"binder": "B1", "EC50 values for CD69 Expression": 4.9},
      {"binder": "B2", "EC50 values for CD69 Expression": 5}
    ]},
    {"molecular_target": "T1, HA-1 “H” peptide (…) presented by …", "assay": "cell-based or functional assay", "remark": "another data set of the same source", "units": {"EC50 values for CD69 Expression": "ng/mL"}, "values": [
      {"binder": "B3", "EC50 values for CD69 Expression": 2.77},
      {"binder": "B4", "EC50 values for CD69 Expression": 2.49},
      {"binder": "B5", "EC50 values for CD69 Expression": 2.27},
      {"binder": "B6", "EC50 values for CD69 Expression": 3.4},
      {"binder": "B7", "EC50 values for CD69 Expression": 9.2}
    ]},
    {"molecular_target": "T1, HA-1 “H” peptide (…) presented by …", "assay": "cell-based or functional assay", "remark": "another data set of the same source", "values": [
      {"binder": "B8", "EC50 for CD69 Expression": "< 10 ng/mL and < 10 nM"},
      {"binder": "B9", "EC50 for CD69 Expression": "< 10 nM and < 10 ng/mL"},
      {"binder": "B10", "EC50 for CD69 Expression": "< 10 ng/mL and < 10 nM"},
      {"binder": "B11", "EC50 for CD69 Expression": "< 10 ng/mL and < 10 nM"},
      {"binder": "B12", "EC50 for CD69 Expression": "< 10 ng/mL and < 10 nM"}
    ]}
  ]
}
